This note sets out measurements from US20240293573A1 (SEOUL NATIONAL UNIVERSITY R AND DB FOUNDATION, published 2024).

The experiment deals with T1, Claudin3 (Homo sapiens (Human), UniProt O15551 1-220).
T1 construct: also called CLDN3
T1 sequence: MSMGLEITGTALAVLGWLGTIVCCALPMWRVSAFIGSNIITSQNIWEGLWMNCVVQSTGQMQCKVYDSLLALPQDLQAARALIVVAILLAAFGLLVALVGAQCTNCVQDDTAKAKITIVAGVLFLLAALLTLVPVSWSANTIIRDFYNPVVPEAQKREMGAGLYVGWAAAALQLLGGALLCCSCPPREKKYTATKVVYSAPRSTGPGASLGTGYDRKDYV
The experiment in a line: fluorescence of FITC-labeled h4G3cys on CLDN3/TOV-112D cells, one-to-one two-state model.

B1: cysteine-substituted anti-Claudin3 human monoclonal antibody h4G3cys (light chain Q125C) (antibody, human IgG1, kappa, V domains shown)
VH: EVQLLESGGGLVQPGGSLRLSCAASGFTFSSYAMSWVRQAPGKGLEWVSIINPSGASTSHAQRFQGRFTISRDNSKNTLYLQMNSLRAEDTAVYYCARYGRYGSFDIWGQGTLVTVSS
VL: QSVLTQPPSASGTPGQRVTISCSGSTSNIGRNYVSWYQQLPGTAPKLLIYDTSNKHFGVPDRFSGSKSGTSASLAISGLRSEDEADYYCQSYDSSKVVFGGGTKLTVLR
notes: also called modified anti-Claudin3 antibody; anti-Claudin3 antibody variant
The Kd is the concentration at which binding is half-saturated. Molecule B1 gave a Kd of 5.24 nM.
